# Source: patent publication EP4669337B1 (ATOPIA THERAPEUTICS SA, dated 2025)
# B1: polypeptide of SEQ ID NO:31 (a specific polypeptide of SEQ ID NO: 10, s1m1 family VacA-derived polypeptide) (other)
# chain: AFFTTVIIPAIVGGIATGTAVGTVSGLLGWGLKQAEEANKTPDKPDKVWRIQAGKGFNEFPNKEYDLYKSLLSSKIDGGWDWGNAATHYWIKGGQWNKLEVDMKDAVGTYKLSGLRNFTGGDLDVNMQKATLRLGQFNGNSFTSYKDSADRTTRVDFNAKNILIDNFLEINNRVGSGAGRKASSTVLTLQASEGITSSKNAEISLYDGATLNLASNSVKLNGNVWMGRLQYVGAYLAPSYSTINTSKVTGEVNFNHLTVGDHNAAQAGIIASNKTHIGTLDLWQSAGLNIIAPPGGKDTVVNIDRINTKADGTIKVGGFKASLTTNAAHLNIGKGGVNLSNQASGRTLLVENLTGNITVDGPLRVNNQVGGYALAGSSANFEFKAGVDTKNGTATFNNDISLGRFVNLKVDAHTANFKGIDTGNGGFNTLDFSGVTNKVNINKLITASTNVAVKNFNINELIVKTNGVSVGEYTHFSEDIGSQSRINTVRLETGTRSIFSGGVKFKSGEKLVIDEFYYSPWNYFDARNIKNVEITRKFASSTPENPWGTSKLMFNNLTLGQNAVMDYSQFSNLTIQGDFINNQGTINYLVRGGKVATLNVGNAAAMMFNNDIDSATGFYKPLIKINSAQDLIKNTEHVLLKAKIIGYGNVSTGTNGISNVNLEEQFKERLALYNNNNRMDTCVVRNTDDIKACGMAIGNQSMVNNPDNYKYLIGKAWKNIGISKTANGSKISVYYLGNSTPTENGGNTTNLPTNTTNNARFASYA
# notes: Engineered polypeptide derived from the H. pylori VacA s1m1 family, expressed in CHO or HEK cells and purified
# B2: human TGFβ receptor 1 (receptor, UniProt P36897 34-126, looked up)
# chain: LQCFCHLCTKDNFTCVTDGLCFVSVTETTDKVIHNSMCIAEIDLIPRDRPFVCAPSSKTGSVTTTYCCNQDHCNKIELPTTVKSSPGLGPVEL
# notes: Immobilised on a CM5 sensor by direct amine coupling; also called TGFβ R1; TGF-bR1
# Experiments:
# human TGFβ receptor 2 [1] = target: T1, human TGFβ receptor 2 (human, UniProt P37173 23-166, limits assumed); assay: SPR (Biacore T200), TGFβ R2 amine-coupled on CM5, equilibrium model
# T1 construct: Immobilised on a CM5 sensor by direct amine coupling; also called TGFβ R2; TGFB-R2
# human TGFβ receptor 2 [2] = target: T1, human TGFβ receptor 2; assay: SPR (Biacore T200), TGFβ R2 amine-coupled on CM5, multi-cycle, two-state kinetic model
# [3] = target: B1; assay: SPR (Biacore T200), TGFβ R1 amine-coupled on CM5, equilibrium model
# [4] = target: B1; assay: SPR (Biacore T200), TGFβ R1 amine-coupled on CM5, multi-cycle, two-state kinetic model
# T1 sequence (P37173 23-166 limits assumed): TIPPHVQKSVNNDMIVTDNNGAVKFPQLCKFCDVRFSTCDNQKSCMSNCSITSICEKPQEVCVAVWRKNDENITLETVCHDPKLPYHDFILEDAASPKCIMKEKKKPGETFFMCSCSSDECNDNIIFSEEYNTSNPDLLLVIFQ
Binder,Kd (human TGFβ receptor 2 [1]) [µM],Kd (human TGFβ receptor 2 [2]) [µM],koff (human TGFβ receptor 2 [2]) [s⁻¹],kon (human TGFβ receptor 2 [2]) [M⁻¹ s⁻¹],Kd [3] [µM],Kd [4] [µM],koff [4] [s⁻¹],kon [4] [M⁻¹ s⁻¹]
B1,5.61,5.07,6670,1.08e+09,,,,
B2,,,,,2.9,2.31,0.603,220000
